# Laboratory results from the DeepSol protein solubility set.
# Experiment: soluble on expression in E. coli; label from the status in PepcDB or PDB records
row,Sequence,soluble on expression in E. coli
1,MQNLRRAVFAGLVAGTLSEGAAATAGDGGFVEDSELQFLARTYYFNRDYRDSPNNAGRNRFKPRSERNGYREEATQGLRLQFASGYTPGSLGFGLDAHAMLGLQLDSGGGRTGTGNLPVGADGHPDHRYGKVGGALRLRHGETRLKYGQTTTSAPVFAASSNRTLAGMAYGLLLEDRSFDGLLLEGGRFTAASGPGESKVRGDISTVYGRLGAYPVRLDAVGFLGGQWQATERLQLSLYASRFDDIWQQAYFGASHRQPLGGERALRVDLDAYRTRDSGQSRFGRIDTLTSSLALGYEHGPQRITLAYQRVHGEQPFDYMAFGDGRSSASMVLANSVGYSDFNGPGERSWQLRYDLDLGALGLPGLSLHALHARGRAGASASSAAESIYAGLYGRDGRHRENDLGFAYRVKAGPLAGLALRASQAWHRGNASYLDGDIDETRLVVDYSRSIW,not soluble
2,MGSDKIHHHHHHMKAKAAFFDIDGTLYREGLISEVFKKLIKYEIIDEEKWYKEVRPEFEKWDNRKGDYDDYLLKMTEIYVDALNGLSKSQVEFIASQVVNQKGERVYTYTRDRIKWHKERGHKIITISGSPIELVRNMAEKYGFDDYRGAEYLLDENDVYTGEVIPMWDSKSKERAVHELEAKYNIDLGESYAYGDTSGDLTMLKMVGNPVCINPTKELVKEILSAAAVKNKIRIIVERKDMIYKISSRCLECDCEFVL,not soluble
3,MRGSHHHHHHTDPALRASSFQFEQIGVIRSPYKEKFAVPRQPGLVKSANGELHLIAPYNQADAVRGLEAFSHLWILFVFHQTMEGGWRPTVRPPRLGGNARMGVFATRSTFRPNPIGMSLVELKEVVCHKDSVILKLGSLDLVDGTPVVDIKPYLPFAESLPDASASYAQSAPAAEMAVSFTAEVEKQLLTLEKRYPQLTLFIREVLAQDPRPAYRKGEETGKTYAVWLHDFNVRWRVTDAGFEVFALEPRGLCGR,soluble
4,MAQTNLSFNPSPRYKSKKGWYKDTPPKEKGGMPTEVEIAGPIVIENKFIDPKTNTEKLIITDEDQKEIVESSDILTTQKLPSLMKYGFSINEKYTKDLGYALQQMRNQLPISYLYEGVGILETPFGPIVSLSEIYTTKEFDNKSPSDAICDNAYDLTPKGTFDNWFNMYLKEVKGSLLLELAVVFGISALVTSFLKHKHETEFAGIIFSFTGQSSTGKSTAASLAVSVAGNPTKGNETLFRNWNATRNALEGYLSNNFGIPIVFDELSSATFRDTTGLLYSITEGQGRQRSNVHGEVKTPKNWGTSVISTSEHSIFNDSAQNDGLRVRTIEINEQFTTNATNADNIKKAVALNYGHVLPLVAKYLINREDEVIQWFYKEVDWFEAKLKDDKSNTGNRMFKRYAVITTSAKILGRVLATDIDIAKIRDYFIDYHGHTISERSLADKAIDVIIQFVAQNRGKFSDEGALKNMFENYGLISLKDDHIEVKMIANVFKQMLNNHQFQDVNNVVNALRDKGFILADRGRQTTKRSVKDNSGKKQSLVFYHLKLDVEFASILGLTKDKSLIQNWTPANDNKAAKELFKSANEGIGPSGVHEDFLEHHHHHH,not soluble
5,GPGSMDKDVDVTKLTAQALQVHIERCERLMKQPALLSRLPDGGNGIRERYSKYLAEVERRKTNGAASALTAQKDGDGEVRDEDEAQSRPAAVEGCQDEKTVGDTTTAEVTYEEEARAIGERHRHFRVPVEEIVRRTFGGSLCDSELQRIINDVPPGFFLTYEETMSMERKLMEEERAETLERLRRQRSAGGVQ,soluble
6,MFRVGILTVSDKGFRGERQDTTHLAIREVLAGGPFEVAAYELVPDEPPMIKKVLRLWADREGLDLILTNGGTGLAPRDRTPEATRELLDREVPGLAELMRLVGLRKTPMAALSRGVAGVRGRTLILNLPGSPKGARESLEAVLPVLPHALSLVTGKPWKEGHHE,soluble
7,MFQPVTQKRLTNVSVVRMRKGGKRFEIACYPNMVMAYREGHVRDLDEVIQVEDVFENVSKGKLAANADLERCFGTRDRHAVLLQILLHGDLQVSDRERQYQSTRKLHEIASVVAAKTISRETKKPLPVGLIEKALREIHFAVQPNRPAKAQALEVIPLLRAQSGLDLERARLRLRIHVPSQRDAKAVKARLEPLQQGETDGTHSSSRSDSVRMKDGSAAVESESEEWLPGGALLWTVQADPGAFREIEEIVQRETNQQGIVEVASLRVLDDEDESILS,not soluble
8,GPELYHYQECVRGTTVLLKEPCPSGTYEGNSPFHPLADNKFALTCTSTHFAFACADGTRHTYQLRARSVSPKLFIRQEEVQQELYSR,soluble
9,SLRAKNQLFLLSPHYLRQVKESSGSRLIQQRLLHQQQPLHPEWAALAKKQLKGKNPEDLIWHTPEGISIKPLYSKRDTMDLPEELPGVKPFTRGPYPTMYTFRPWTIRQYAGFSTVEESNKFYKDNIKAGQQGLSVAFDLATHRGYDSDNPRVRGDVGMAGVAIDTVEDTKILFDGIPLEKMSVSMTMNGAVIPVLANFIVTGEEQGVPKEKLTGTIQNDILKEFMVRNTYIFPPEPSMKIIADIFEYTAKHMPKFNSISISGYHMQEAGADAILELAYTLADGLEYSRTGLQAGLTIDEFAPRLSFFWGIGMNFYMEIAKMRAGRRLWAHLIEKMFQPKNSKSLLLRAHCQTSGWSLTEQDPYNNIVRTAIEAMAAVFGGTQSLHTNSFDEALGLPTVKSARIARNTQIIIQEESGIPKVADPWGGSYMMECLTNDVYDAALKLINEIEEMGGMAKAVAEGIPKLRIEECAARRQARIDSGSEVIVGVNKYQLEKEDTVEVLAIDNTSVRNRQIEKLKKIKSSRDQALAERCLAALTECAASGDGNILALAVDASRARCTVGEITDALKKVFGEHKANDRMVSGAYRQEFGESKEITSAIKRVHKFMEREGRRPRLLVAKMGQDGHDRGAKVIATGFADLGFDVDIGPLFQTPREVAQQAVDADVHAVGVSTLAAGHKTLVPELIKELNSLGRPDILVMCGGVIPPQDYEFLFEVGVSNVFGPGTRIPKAAVQVLDDIEKCLEKKQQSV,not soluble
10,MLPLEPYLTQTSAVPQMSHFMCHSPTHKPQGLLPWAPFHQASVSLYPISPWPSESVCPPTCPGGASCWFPAGNAWDRVELGFLGFGAGGVSIAVPGFPLSCGQGCCAGGWLGHGARFPAKLRAFPQVIRRGWLTINNISLMKGGSKEYWFVLTAESLSWYKDEEEKEKKYMLPLDNLKIRDVEKGFMSNKHVFAIFNTEQRNVYKDLRQIELACDSQEDVDSWKASFLRAGVYPEKDQAENEDGAQENTFSMDPQLERQVETIRNLVDSYVAIINKSIRDLMPKTIMHLMINNTKAFIHHELLAYLYSSADQSSLMEESADQAQRRDDMLRMYHALKEALNIIGDISTSTVSTPVPPPVDDTWLQSASSHSPTPQRRPVSSIHPPGRPPAVRGPTPGPPLIPVPVGAAASFSAPPIPSRPGPQSVFANSDLFPAPPQIPSRPVRIPPGIPPGVPRRPPAAPSRPTIIRPAEPSLLD,soluble
11,SARRISSQGKVTISVDEYSSNPTQAFTHYNINQSRFQPPHVHMVEPLPYDAPKSVGHTRFVCVSDTHSRTDGIQMPFGDVLLHTGDFTELGLPSEVKKFNDWLGGLPYEYKVVIAGNHELTFDKDFMAELIKQDYYRFPSVSKLRSEDFDDVQSLLTNCVYLQDSEVTIKGFRIYGAPWTLWFNGWGFNLPRGQSLLDKWNQIPEDVDILMTHGPPLGFRDWLPKELQRVGCVELLNTVQKRVRPKLHAYGGIHEGYGIMTDGYTTFINSSTCTVSFQPTNPPIIFDLPNPGNS,soluble
12,MGSDKIHHHHHHMPRNLPPLYALRAFEAAARHTSFTRAAEELSITQSAVSRHIRTLEEHFACRLFQRNGRNLQLTESARTLLPGVRDGFLALERACSTLQTDEGVLRMKAPSTLTMRWLLARLSRFRHLQVGNEVQLTSAWMDIDAVDFTREPFDCAILLSQGHFPSDWEATLLFAELLIPVGAPTLSQDPPWDVERLAKAELLHPTPDRRDWRTWLNRMGLADQVSLKGGQVFDTLELGMIAAARGYGVSMGDLLMVAEDLAQSRLSLPWRTAVFSGENYYLVWPRTRPGAERLRRLSDFLQAEVKAMKLPLVEVLR,not soluble
13,MTTFSHSSTTPSVSVTTASGNNQSQLVATPVPDEQRISFWPQHFGLIPQWVTLEPRVFGWMDRLCEDYCGGIWNLYTLNNGGAFIAPEPDEDDGETWILFNAMNGNRAEMSPEAAGIAACLMTYSHHACRTECYAMTVHYYRLRDYALQHPECSAIMRIID,not soluble
14,MIDPREIAISSRLEKVRNVIPVVSGKGGVGKSLISTTLALLLREKGYKVGLLDLDFHGASDHVILGFEPKEFPEEDKGVVPPEVNGVKFMTIVYYTENKPTPLRGKEVSDALIELLTITRWDELDYLVIDMPPGLGDPFLDVLRFLKRGKFIVVATPSKLALNVVEKLIQLLKEENREILGIIENMKLDEEEDVKNLAKRHGINYLLGVPFYRDLEEKIGKVEELLKTPFADKLREVIKVLV,soluble
15,MDDIRCAIIIDPDLPPGVIANTAAVLAMSLGKRHPELVGQDLPDARGQPRQGITTVPIPVLKGGADQLRALRAAASETGLTLVELTSATRFTRSYQEYAAALAATPEEMVEYQGLALCGPGKRVRQLTGSLGLLRLEHHHHHH,not soluble
16,MLKGEDIGIDLGTASVLIYVRGKGIVLKEPSVIAVVQGKREVKAVGAEAYRMLGRTPGNIVAVRPLKDGVIADYALTEKMLLLFLQKVLSPMSRLFKGRVRIMVGVPSGVTDVERRAVVQAVSTLAHKVYLIEEPLAAAIGAGINVAEPTGSMVVDIGGGSTDIAVISLGGIVRSESLRIAGNEMDQAIILHIRQKYNLLIGERTAEELKIRLGRAKLLPGEEKEVAEVRGRDLLTGLPRTAEIPAEDIVEALQEPLSKIFQGVRNVLESTPPELASDIYERGILLTGGGALLRNLDVALQKATGVPVVVTENPIEAVALGTGKALEMLHVLEDTILSSDDVLRR,soluble
17,MHEMRELAQGSLKEMRTLIWQLRPAGLEKGLLPALKQYGESLGLKIREQVTGVRDLPRVVEEALWRIGQEALNNVSKHANVREATIYFKVTEKNVSLEIVDQGNGFVEKNIKEKKSLGMTTMRERVELVGGTIKIVSDKKRTSVKVNVPL,not soluble
18,MAHHHHHHMGTLEAQTQGPGSMKISFSEIIHNALKEDLGDKGDITTNSILINEKVNFAINTRENLVVCGIPILEEVFNMNKEHVKYEIHKKDGDITGKNSTLVSGEALAIYLLPIERVILNFIQHASGIASITRQFVDEVSGTKVKIRSTRKTTPGLRMLDKYSVCIGGGESYRDNLCDGVLIKDNHIASCGSITLAIQRLRKNLKNEYIAIECDNISQVEESLSNNVDMILLDNMSISEIKKAVDIVNGKSVLEVSGCVNIRNVRNIALTGVDYISIGCITNSFQNKDIGLDIEYNNNK,soluble
19,MGNIANEAKLLKLDGKAYRNDFMLGNGKGHARDNLSRQRPGTSKRLSCSQLESLYSSNSMAKNIVDIPAEDLTRNGWSLKMQDDKVKALYESKLRQLKAKERLQQLFTYERLYGDGFVSIGTIEKREYSLSEPLDFENIKSVPYINAFSGKKISNRIIDEDVFSPNYGQIESFEVNNRSNNSRIHLLNNTTYSRATTIHRSRVLHQQNLRFEDELEGSSLLENLYDILTVADTSVWSVGQILYDFIFKVYKSADVRSLTPQDKLEIETKMDYQFRTEAIAIIDKEESLGKESSSVAGIGELLDFVWDYLAGAARMPKTVLKGQEGGTVTGAQYDVMNYYSRITAIQENQLRPHLEYLMRCLMWAEDECGGRLDPDSIEWSVEFNPLWNVDSKTDAEIRKLTAETDKIYIEAGVSDPDDVHEARFGRFGITETSKFNADSLSRDELDKMAAVVYENYKQDRDNEK,not soluble
20,MRMLAAERRDHLLGLLARQGKIVAKDVAAELRISEDTVRRDLRDLASEGLCQRVYGGALPVSPAVADYGARRTVAPDGKRKVASAAAGLVRPGGVVILDGGTTALAVVHALPEDLDCTVITHSPTIAAALLDHPRAEVFVLGGRLFKHSAVACGAAAVEAAQNVSADLFLLGVTGVHLEAGLTTGDAEDAAMKRALAARAADTYVLASSEKIGTASRYRVLPWEEISGLVTDTPPHDPVIEQLTAGGVDVLAADAAALEHHHHHH,not soluble
